Measured values published in publication PMC3627822.

Columns and labels:
[1] = biological target: sochicetin-A (Echis sochureki); experiment: ELISA
[2] = biological target: sochicetin-B (Echis sochureki); experiment: ELISA
[3] = biological target: sochicetin-C (Echis sochureki); experiment: ELISA
[4] = biological target: soluble integrin α2β1 ectodomain (UniProt P17301); experiment: ELISA
[5] = biological target: sochicetin-A αβ heterodimer (Echis sochureki); experiment: SDS-PAGE, non-reduced against reduced and partly reduced + MALDI-TOF

## recombinant GST-tagged integrin α2 A-domain (domain or fragment)
[1]
  Kd: 11.7 nM
[2]
  Kd: 17.3 nM
[3]
  Kd: 54.5 nM

## sochicetin-A (complex)
[4]
  IC50: 59.7 nM

## sochicetin-A αβ heterodimer (complex)
[5]
  stoichiometry N: 3

## sochicetin-B (complex)
[4]
  IC50: 32.7 nM

## sochicetin-C (complex)
[4]
  IC50: 1480 nM
